We go through one protein from publication PMC5615437, “A novel bifunctional acetyl xylan esterase/arabinofuranosidase from Penicillium chrysogenum P33 enhances enzymatic hydrolysis of lignocellulose” (Microbial Cell Factories, 2017).

A word on the Km: it is the substrate concentration at which the rate is half of its maximum.

Substrate in this data set: CC(=O)Oc1ccc([N+](=O)[O-])cc1
As to the kind of experiment: 4-nitrophenol release, Lineweaver-Burk plot. In kind it is biochemical, Penicillium chrysogenum. The following applies: pH 7, 40 °C, pNPA 0.2-2 mM.

B1: rPcAxe (Penicillium chrysogenum) (protein)
chain: AASSGCGKQPTLTNGVHTINGRQYILKVPDNYDSNKPHHLVFGLHWRGGNMNSVANGDSIQPWYGLESRAQGSAILVSPDGKNAGWANTNGEDVALIDAIIQQVEGDLCVDSSSRFATGFSWGGGMSYALACSRAKEFKAVSVLSGGLISGCEGGYDPIAYLGIHGIDDQVLPIDEGVTLANKFVGNNKCQPTNIGKPASGSGGFVRSDFQGCSKPVSFIAYDGGHVGAPLGVGSSLAPDATWEFFMAA
B1: the Michaelis constant (Km) was 465 µM.
